From patent US20260184768A1 (Regeneron, published 2026)

B1: H1H29329P (antibody, V domains shown)
VH: EVQLVESGGGLVQPGGSLRLSCAASGFTFSDHEMNWVRQAPGKGLEWISYIGSGVVTMYYADSVRGRFTISRDNAKKTLYLQMNSLRAEDTAVYYCARDRGYYFGSEAFHYWGQGTLVTVSS
VL: DIQMTQSPSTLSASVGDRVTITCRASQSISNWLAWYQQKPGKAPKLLIYKSSSLESGVPSRFSGSGSGTEFTLTISSLQPDDFATYYCQQYKSYSLTFGGGTKVEIKR
B2: H1H29332P (antibody, V domains shown)
VH: EVQLVESGGDLVQPGGSLRLSCKASGFTFSTFAMNWVRQAPGRGLEWVSAIGASGYSTYYVDSMKGRFTISRDNSKNTLYLQMNSLGAEDTAVYYCAKEYSVSSNYYYGMDVWGQGTTVTVSS
VL: DIQMTQSPSSLSASVGDRVTITCRASQTIRRYLNWYQQKAGKAPKLLIYAASSLLSGVPSRFSASGSGTDFTLTISSLQPEDFSTYYCQQTYSIPITFGQGTRLEIKR
B3: H1H29339P (antibody, V domains shown)
VH: EVQLVESGGDLVQPGGSLRLSCAASGFTFNTYAMNWVRQAPGKGLEWVAVIGGSGYSTNYADSVKGRFTISRDNSKNTLYLQMNSLRTEDTAVYYCAKEGNIVALYWYFDLWGRGTLVTVSS
VL: DIQMTQSPSSLSASVGDRVTITCRASQSISRYLNWYQQKPGKAPKLLIYAASSLQGGVPSKFSGSGSGTDFTLTISSLQPEDFATYYCQQSSTTPLTFGGGTKVEIKR
B4: H1H29336P (antibody, V domains shown)
VH: EVQLVESGGGLVQPGGSLRLSCAASGFTFSSYAMTWVRQAPGKGLEWVSSIRGSGYSSDYADSVKGRFTISRDNSENTVYLQMNRLRAEDTAVYYCAKERSVTAYYYYGMDVWGQGTTVTVSS
VL: DIQLTQSPSFLSASVGDRVTITCWASQDISSFLTWYQQKPGIAPKLLIYTASTLQSGVPSRFSGSGSGTEFTLTISSLQPEDFATYYCQQLKSYPLTFGGGTKVEIKR
B5: REGN3977 (antibody, V domains shown)
VH: QVQLKQSGPGLVQPSQSLSITCTVSGFSLTSYGVHWVRQSPGKGLEWLGVIWSGGDTDYNAAFISRLSISKDNSKSQLFFKMNSLRATDTAIYYCARNRGDIYYDFTYAMDYWGQGTSVTVSS
VL: DIQMTQSPASLSASVGETVTITCRASGNIQNYLAWYQQTQGKSPQLLVYSAKTLADGVPSRFSGSGSGTQYSLKINSLQPEDFGSYYCQHFWSTPYTFGGGTKLEIKR
notes: also called Control III; REGN3977-Control III
B6: REGN3514 (antibody, V domains shown)
VH: EMQLLESGGGLVQPGGSLRLSCAASGFTFSSYAMNWVRQAPGEGLEWVSAITISGITAYYTDSVKGRFTISRDNSKNTLYLQMNSLRAGDTAVYYCAKEEFLPGTHYYYGMDVWGQGTTVTVSS
VL: AIQMTQSPSSLSASVGDRVTITCRASQGIRNDLGWYQQKPGKAPKLVIYSASTLQSGVPSRFSGSGSGTDFTLSISSLQPDDFATYYCLQDYNYPWTFGQGTKVEIKR
notes: also called Control I; Control I-REGN3514

Assays:
[1] = biological target: PcrV 136-233 (Pseudomonas aeruginosa); assay: ELISA, PcrV coated on plate, chemiluminescence
Experimental: (§1) Anti-PcrV monoclonal antibodies (mAbs) were assessed by ELISA for their ability to bind to recombinant PcrV proteins. […] The following morning, plates were washed three times with wash buffer (Imidazole buffered saline with Tween-20) and blocked for 1.5 hours at 25° C. with 200 μl of blocking buffer (3% BSA in PBS). […] Wells were washed three times and then incubated with 100 ng/ml anti-human HRP secondary antibody per well for one hour at 25° C. 100 μl of SuperSignal™ ELISA Pico Chemiluminescent Substrate was added to each well and signal was detected (Victor X3 plate reader, Perkin Elmer). Luminescence values were analyzed by a four-parameter logistic equation over a 10-point response curve (GraphPad Prism).

[2] = biological target: T1, recombinant full-length P. aeruginosa PcrV (Pseudomonas aeruginosa); assay: ELISA, PcrV coated on plate, chemiluminescence
T1 construct: Coated on ELISA plates; also called Full length PcrV; Full length PerV
Experimental: as §1

[3] = biological target: T2, full-length PcrV.6xhis (Pseudomonas aeruginosa); assay: SPR (Biacore T200), mAb captured via anti-human Fc, PcrV injected, 37 C
T2 construct: Recombinant full-length V-tip protein of the type 3 secretion system, His-tagged; also called full-length PcrV with a C-terminal hexahistidine tag
Experimental: (§2) The equilibrium dissociation constant (KD) for different PcrV reagents binding to purified anti-PcrV monoclonal antibodies were determined using a real-time surface plasmon resonance based Biacore T200 biosensor. All binding studies were performed in 10 mM HEPES, 150 mM NaCl, 3.4 mM EDTA and 0.05% v/v Tween-20, pH 7.4 (HBS-EP) running buffer at 25° C. and 37° C. […] Proteins were injected over the captured anti-PcrV monoclonal antibody surface for 4 minutes at a flow rate of 50 μL/minute, while the dissociation of monoclonal antibody bound PcrV reagent was monitored for 10 minutes in HBS-EP running buffer.
(§3) Kinetic association (kₐ) and dissociation (kd) rate constants were determined by fitting the real-time sensorgrams to a 1:1 binding model using Scrubber 2.0c curve fitting software. Binding dissociation equilibrium constants (KD) and dissociative half-lives (t½) were calculated from the kinetic rate constants as:

[4] = biological target: T3, PcrV (aa136-257).6xhis (Pseudomonas aeruginosa); assay: as above
T3 chain: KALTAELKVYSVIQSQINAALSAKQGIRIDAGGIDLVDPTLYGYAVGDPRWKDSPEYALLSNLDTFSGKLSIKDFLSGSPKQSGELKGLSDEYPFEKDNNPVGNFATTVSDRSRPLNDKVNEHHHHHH
Experimental: as §2, §3

[5] = biological target: T3, PcrV (aa136-257).6xhis; assay: SPR (Biacore T200), mAb captured via anti-human Fc, PcrV injected, 25 C
Experimental: as §2, §3

[6] = biological target: T4, PcrV of P. aeruginosa strain ATCC 700888 (Pseudomonas aeruginosa strain ATCC …); assay: cell-based or functional assay
[7] = biological target: T5, PcrV of P. aeruginosa strain 6077 (Pseudomonas aeruginosa strain 6077); assay: cell-based or functional assay
[8] = biological target: T4, PcrV of P. aeruginosa strain ATCC 700888; assay: cell-based or functional assay; remark: listed apart in the source
[9] = biological target: T5, PcrV of P. aeruginosa strain 6077; assay: cell-based or functional assay; remark: listed apart in the source
[10] = biological target: T2, full-length PcrV.6xhis; assay: SPR (Biacore T200), mAb captured via anti-human Fc, PcrV injected, 25 C
Experimental: as §2, §3

Row | Binder | EC50 [1] [nM] | EC50 [2] [nM] | 90 nM Ag Bound (RU) [3] [RU] | Kd [3] [nM] | koff [3] [s⁻¹] | kon [3] [M⁻¹ s⁻¹] | t½ [3] [h] | Kd [4] [nM] | koff [4] [s⁻¹] | kon [4] [M⁻¹ s⁻¹] | t½ [4] [h] | Kd [5] [nM] | koff [5] [s⁻¹] | kon [5] [M⁻¹ s⁻¹] | t½ [5] [h] | 90 nM Ag Bound (RU) [10] [RU] | Kd [10] [nM] | koff [10] [s⁻¹] | kon [10] [M⁻¹ s⁻¹] | t½ [10] [h] | other results
1 | B1 | 7.44 | 0.597 | 59.6 | 9.12 | 0.00505 | 554000 | 0.0383 | 107 | 0.011 | 103000 | 0.0167 | 15 | 0.0023 | 153000 | 0.0833 | 81 | 5.16 | 0.00095 | 184000 | 0.203 | Rabbit RBC Hemolysis Assay (IC50) [6]: 2.39 nM; Rabbit RBC Hemolysis Assay (IC50) [7]: 56.4 nM; A549 Cytotoxicity Assay (IC50) [8]: 54.3 nM; A549 Cytotoxicity Assay (IC50) [9]: 10.8 nM
2 | B2 | 0.814 | 2.12 | 163 | 0.092 | 2.68e-05 | 293000 | 7.19 | 0.595 | 0.000106 | 178000 | 1.82 | 0.285 | 3.83e-05 | 133000 | 5.03 | 152 | 0.0548 | 1.3e-05 | 237000 | 14.8 | Rabbit RBC Hemolysis Assay (IC50) [6]: 4.06 nM; Rabbit RBC Hemolysis Assay (IC50) [7]: 15.3 nM; A549 Cytotoxicity Assay (IC50) [8]: 32.9 nM; A549 Cytotoxicity Assay (IC50) [9]: 6.47 nM
3 | B3 | 0.856 | 1.96 | 130 | 0.0197 | ≤ 1e-05 | 508000 | ≥ 19.2 | 0.186 | 8.15e-05 | 435000 | 2.36 | 0.0955 | 2.76e-05 | 293000 | 6.97 | 140 | ≤ 0.0274 | ≤ 1e-05 | 365000 | ≥ 19.2 | Rabbit RBC Hemolysis Assay (IC50) [6]: 5.59 nM; Rabbit RBC Hemolysis Assay (IC50) [7]: 2.3 nM; A549 Cytotoxicity Assay (IC50) [8]: 7.82 nM; A549 Cytotoxicity Assay (IC50) [9]: 0.0333 nM
4 | B4 | 1.03 | 2.28 | 80.7 | ≤ 0.0116 | ≤ 1e-05 | 860000 | ≥ 19.2 | 0.0809 | 4.36e-05 | 544000 | 4.41 | 0.0408 | 1.48e-05 | 367000 | 13.1 | 102 | ≤ 0.0204 | ≤ 1e-05 | 490000 | ≥ 19.2 | Rabbit RBC Hemolysis Assay (IC50) [6]: 0.81 nM; Rabbit RBC Hemolysis Assay (IC50) [7]: 0.205 nM; A549 Cytotoxicity Assay (IC50) [8]: 6.37 nM; A549 Cytotoxicity Assay (IC50) [9]: 0.84 nM
5 | B5 | – | – | 136 | 3.48 | 0.000917 | 263000 | 0.21 | 11.4 | 0.00245 | 216000 | 0.0783 | 4.28 | 0.000956 | 223000 | 0.202 | 146 | 2.39 | 0.000495 | 207000 | 0.39 | –
6 | B6 | 7.59 | 0.696 | 141 | 0.453 | 0.000196 | 431000 | 0.985 | 2.42 | 0.000596 | 246000 | 0.323 | 0.83 | 0.000122 | 147000 | 1.58 | 169 | 0.146 | 3.9e-05 | 267000 | 4.94 | Rabbit RBC Hemolysis Assay (IC50) [6]: 1.01 nM; Rabbit RBC Hemolysis Assay (IC50) [7]: 2.44 nM; A549 Cytotoxicity Assay (IC50) [8]: 17.8 nM; A549 Cytotoxicity Assay (IC50) [9]: 0.807 nM
